Test results published in US20200231654A1 (published 2020).
Like-named read-outs stand apart in the source and are kept apart here.

Columns and labels:
active hMMP-9(cat)_F110A = active hMMP-9(cat)_F110A (UniProt P14780 107-449); test: substrate peptide degradation inhibition
active hMMP-9(cat)_F192A = active hMMP-9(cat)_F192A (UniProt P14780 107-449); test: substrate peptide degradation inhibition
active hMMP-9(cat)_Y179A = active hMMP-9(cat)_Y179A (UniProt P14780 107-449); test: substrate peptide degradation inhibition
Chain of active hMMP-9(cat)_Y179A (P14780 107-449 Y179A): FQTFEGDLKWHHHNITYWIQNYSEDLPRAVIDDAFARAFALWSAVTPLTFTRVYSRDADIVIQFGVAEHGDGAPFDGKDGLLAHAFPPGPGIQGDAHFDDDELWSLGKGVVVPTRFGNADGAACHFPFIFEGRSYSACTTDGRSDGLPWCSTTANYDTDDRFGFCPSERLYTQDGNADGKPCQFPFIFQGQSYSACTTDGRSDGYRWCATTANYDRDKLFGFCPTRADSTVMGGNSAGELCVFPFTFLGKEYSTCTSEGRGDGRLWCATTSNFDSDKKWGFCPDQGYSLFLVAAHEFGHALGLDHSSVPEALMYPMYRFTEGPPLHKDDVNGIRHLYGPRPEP

active hMMP-9(cat)_M422I = active hMMP-9(cat)_M422I (UniProt P14780 107-449); test: substrate peptide enzyme inhibition
Chain of active hMMP-9(cat)_M422I (P14780 107-449 M422I): as the sequence (P14780 107-449 Y179A) above, with A73Y, M316I counted along it

active hMMP-9(cat)_R424T = active hMMP-9(cat)_R424T (UniProt P14780 107-449); test: substrate peptide enzyme inhibition
Chain of active hMMP-9(cat)_R424T (P14780 107-449 R424T): as the sequence (P14780 107-449 Y179A) above, with A73Y, R318T counted along it

active hMMP-9(cat)_Y423A = active hMMP-9(cat)_Y423A (UniProt P14780 107-449); test: substrate peptide enzyme inhibition
Chain of active hMMP-9(cat)_Y423A (P14780 107-449 Y423A): as the sequence (P14780 107-449 Y179A) above, with A73Y, Y317A counted along it

active hMMP-9(cat)_V398A = active hMMP-9(cat)_V398A (UniProt P14780 107-449); test: substrate peptide enzyme inhibition
Chain of active hMMP-9(cat)_V398A (P14780 107-449 V398A): as the sequence (P14780 107-449 Y179A) above, with A73Y, V292A counted along it

active hMMP-9(cat)_Y393A = active hMMP-9(cat)_Y393A (UniProt P14780 107-449); test: substrate peptide enzyme inhibition
Chain of active hMMP-9(cat)_Y393A (P14780 107-449 Y393A): as the sequence (P14780 107-449 Y179A) above, with A73Y, Y287A counted along it

active hMMP-9(cat)_Y420A = active hMMP-9(cat)_Y420A (UniProt P14780 107-449); test: substrate peptide enzyme inhibition
Chain of active hMMP-9(cat)_Y420A (P14780 107-449 Y420A): as the sequence (P14780 107-449 Y179A) above, with A73Y, Y314A counted along it

active hMMP-9(cat)_L397A = active hMMP-9(cat)_L397A (UniProt P14780 107-449); test: substrate peptide enzyme inhibition
Chain of active hMMP-9(cat)_L397A (P14780 107-449 L397A): as the sequence (P14780 107-449 Y179A) above, with A73Y, L291A counted along it

active hMMP-9(cat)_His6 [1] = biological target: T1, active hMMP-9(cat)_His6 (UniProt P14780 107-449); test: enzyme inhibition; substrate peptide
T1 sequence (P14780 107-449): as the sequence (P14780 107-449 Y179A) above, with A73Y counted along it

active hMMP-9(cat)_His6 [2] = biological target: T1, active hMMP-9(cat)_His6; test: enzyme inhibition; substrate peptide; remark: listed apart in the source
active hMMP-9(cat)_L187A = active hMMP-9(cat)_L187A (UniProt P14780 107-449); test: substrate peptide degradation inhibition
Chain of active hMMP-9(cat)_L187A (P14780 107-449 L187A): as the sequence (P14780 107-449 Y179A) above, with A73Y, L81A counted along it

Chain of active hMMP-9(cat)_F110A (P14780 107-449 F110A): as the sequence (P14780 107-449 Y179A) above, with F4A, A73Y counted along it
Chain of active hMMP-9(cat)_F192A (P14780 107-449 F192A): as the sequence (P14780 107-449 Y179A) above, with A73Y, F86A counted along it

| Binder | IC50 (active hMMP-9(cat)_F110A) | IC50 (active hMMP-9(cat)_F192A) | IC50 (active hMMP-9(cat)_Y179A) | IC50 (active hMMP-9(cat)_M422I) | IC50 (active hMMP-9(cat)_R424T) | IC50 (active hMMP-9(cat)_Y423A) | IC50 (active hMMP-9(cat)_V398A) | IC50 (active hMMP-9(cat)_Y393A) | IC50 (active hMMP-9(cat)_Y420A) | IC50 (active hMMP-9(cat)_L397A) | IC50 (active hMMP-9(cat)_His6 [1]) | IC50 (active hMMP-9(cat)_His6 [2]) | IC50 (active hMMP-9(cat)_L187A) |
| --- | --- | --- | --- | --- | --- | --- | --- | --- | --- | --- | --- | --- | --- |
| active MMP-9-binding peptide M91011 (designed binder) GSGMKETAAAKFERQHMDSPDLGTDDDDKAMADIGSANSDPQFGLFSKYRTPNCMMYKYAQCSHKSQPVCGSDMSTYANECTLCMKIREGGHNIKIIRNGPCGASAAA | 7.3 nM | 83 nM | 81 nM | 43 nM | 45 nM | > 330 nM | 79 nM | > 950 nM | 33 nM | 57 nM |  |  |  |
| active MMP-9-binding peptide M91002 (designed binder) GSGMKETAAAKFERQHMDSPDLGTDDDDKAMADIGSANSDPQFGLFSKYRTPNCRTGRGPACQMGFQPVCGSDMSTYANECTLCMKIREGGHNIKIIRNGPCGASAAA |  |  |  |  |  |  |  |  |  |  | 5 nM |  |  |
| active MMP-9-binding peptide M91005 (designed binder) GSGMKETAAAKFERQHMDSPDLGTDDDDKAMADIGSANSDPQFGLFSKYRTPNCRKRGGPSCQMSYNPVCGSDMSTYANECTLCMKIREGGHNIKIIRNGPCGASAAA | 69 nM | > 1000 nM | 55 nM | 45 nM | 31 nM | 230 nM | 39 nM | 48 nM | 54 nM | 37 nM |  | 1.1 nM | 120 nM |
